Results as given in patent publication US20120121587A1 (Chugai, published 2012).
Positions count from the first letter of the chain named. Where two headings read alike, the source gives them in different places. Each block holds one binder with its values, some of them ahead of it.

Columns and labels:
[1] = target: T1, Human recombinant AXL-FND1 (GST-FND1), from pET-41b(+) (human, UniProt P30530 225-331); assay: SPR (Biacore T100): antibody captured on Protein A, GST-FND1 as analyte
T1 construct: Expressed in E. coli, purified on Glutathione Sepharose; analyte in all Biacore measurements; GST put first by the usual layout of pET-41; not shown: GST-tag of vector pET-41b(+) (Novagen)
T1 sequence (looked up): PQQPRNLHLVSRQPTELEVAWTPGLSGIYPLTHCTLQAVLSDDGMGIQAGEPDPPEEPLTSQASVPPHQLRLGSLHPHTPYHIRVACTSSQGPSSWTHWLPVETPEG
Experimental: Kinetic analyses of antigen-antibody reactions of humanized AXL antibodies were carried out using Biacore T100 (BIACORE). rec-Protein A (Zymed) (hereinafter, Protein A) was immobilized onto a sensor chip, various antibodies were bound to it, then an antigen as the analyte was flushed to measure the antibody-antigen interaction. Human recombinant AXL-FND1 (prepared in 2-2; hereinafter referred to as GST-FND1) prepared at various concentrations was used as the antigen. From the sensorgrams obtained through the measurements, kinetic parameters, namely binding rate constant kₐ (1/Ms) and dissociation rate constant kd (1/s), were calculated, and Kd (M) was calculated based on these values. Biacore T100 Evaluation Software (BIACORE) was used to calculate each of the parameters.
The sensor chips were produced by immobilizing approximately 3000 RU of Protein A onto CM5 (BIACORE) by amine coupling. Using the produced sensor chip, kinetic analyses were carried out on the interaction between the Protein A-bound antibodies and GST-FND1. HBS-EP+ was used as the running buffer, and the flow rate was set to 30 μL/min. Each antibody was prepared at 1 μg/mL using the running buffer, and was subjected to binding with Protein A for two minutes. GST-FND1 as the analyte was prepared at 0.5 and 2.0 μg/mL using HBS-EP+. Measurements were carried out by first binding the various humanized AXL antibodies, chimeric AXL antibodies, or mouse AXL antibodies of interest to Protein A, then applying an analyte solution to them for a two-minute interaction, and then switching to HBS-EP+ (BIACORE) for a two-minute measurement of the dissociation phase. After completion of measurement of the dissociation phase, 30 μL of 10 mM glycine-HCl (pH 2.0) was used for washing to regenerate the sensor chip. Such binding, dissociation, and regeneration were defined as one cycle of analysis. All experiments were performed at 25° C.
Affinity measurements on the produced variants were carried out by the method of Example 2.

[2] = target: T1, Human recombinant AXL-FND1 (GST-FND1), …; assay: as above; remark: listed apart in the source
Method in brief: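 Antibodies (1 μg/mL) were captured for 2 min on a Protein A CM5 chip. GST-FND1 (0.5 and 2.0 μg/mL) in HBS-EP+ was flowed at 30 μL/min with 2 min association and 2 min dissociation at 25° C. ka and kd were fitted from sensorgrams and Kd was calculated from them.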

Kd [1]: 3.6 nM
B1: H9/L36 (antibody, human IgG1, kappa, V domains shown)
VH: QVTLKESGPVLVKPTETLTLTCTVSGFSLSSFGVDWVRQAPGKGLEWMGVIWGGGSTNYNSALKSRLTISKDNSKSQVVLTMTNMDPVDTATYYCAGEGSKYGAWFAYWGQGTLVTVSS
VL: DVVMTQSPLSLPVTLGQPASISCRSSQNIVHTNANTYLEWYQQKPGKAPELLIYKVSNRFSGVPDRFSGSGSGTDFTLKISRVEAEDVGVYYCFQGSHIPFTFGQGTKLEIKR

Kd [2]: 1.89 nM
B2: H47/L1 (antibody, human IgG1, kappa)
heavy: not shown
light: DVVMTQSPLSLPVTLGQPASISCQSSQNIVHTNGNTYLEWYQQKPGKAPELLIYKVSNRFSGVPDRFSGSGSGTDFTLKISRVEAEDVGVYYCFQGSHIPFTFGQGTKLEIKRTVAAPSVFIFPPSDEQLKSGTASVVCLLNNFYPREAKVQWKVDNALQSGNSQESVTEQDSKDSTYSLSSTLTLSKADYEKHKVYACEVTHQGLSSPVTKSFNRGEC

Kd [2]: 1.83 nM
B3: H47/L31 (antibody, human IgG1, kappa)
heavy: not shown
light: B2 light with Q24R, Q27R, E50K

Kd [2]: 1.84 nM
B4: H47/L0 (antibody, human IgG1, kappa)
heavy: not shown
light: B2 light with Q24R

Kd [2]: 2.07 nM
B5: H48/L28 (antibody, human IgG1, kappa)
heavy: not shown
light: B2 light with Q24R, E50K

Kd [2]: 2.06 nM
B6: H49/L0 (antibody, human IgG1, kappa)
heavy: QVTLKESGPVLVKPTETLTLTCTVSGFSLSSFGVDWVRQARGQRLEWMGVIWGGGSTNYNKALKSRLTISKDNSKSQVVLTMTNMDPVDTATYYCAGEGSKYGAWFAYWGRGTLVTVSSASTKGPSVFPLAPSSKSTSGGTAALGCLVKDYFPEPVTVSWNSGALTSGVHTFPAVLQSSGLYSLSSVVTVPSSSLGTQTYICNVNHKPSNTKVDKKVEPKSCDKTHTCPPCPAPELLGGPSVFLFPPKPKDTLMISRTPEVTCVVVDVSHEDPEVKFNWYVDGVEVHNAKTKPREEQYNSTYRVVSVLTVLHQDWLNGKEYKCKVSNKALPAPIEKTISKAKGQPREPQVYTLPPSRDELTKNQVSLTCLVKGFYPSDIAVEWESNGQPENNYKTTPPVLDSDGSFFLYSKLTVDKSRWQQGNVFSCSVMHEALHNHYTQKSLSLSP
light: B2 light with Q24R

Kd [2]: 2.08 nM
B7: H49/L27 (antibody, human IgG1, kappa)
heavy: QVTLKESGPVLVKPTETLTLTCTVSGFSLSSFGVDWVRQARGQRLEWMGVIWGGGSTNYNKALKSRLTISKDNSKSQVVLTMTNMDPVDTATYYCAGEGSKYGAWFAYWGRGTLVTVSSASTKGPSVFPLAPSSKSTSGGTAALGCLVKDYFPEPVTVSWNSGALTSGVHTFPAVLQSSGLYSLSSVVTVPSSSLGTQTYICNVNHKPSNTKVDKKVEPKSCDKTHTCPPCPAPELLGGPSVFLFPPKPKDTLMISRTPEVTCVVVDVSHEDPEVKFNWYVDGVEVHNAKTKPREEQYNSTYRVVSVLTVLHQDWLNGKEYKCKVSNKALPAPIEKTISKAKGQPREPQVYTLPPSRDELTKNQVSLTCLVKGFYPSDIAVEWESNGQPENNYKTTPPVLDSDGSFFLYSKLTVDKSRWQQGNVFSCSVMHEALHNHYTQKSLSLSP
light: B2 light with Q24R, Q27R

Kd [2]: 1.89 nM
B8: H50/L0 (antibody, human IgG1, kappa)
heavy: not shown
light: B2 light with Q24R

Kd [2]: 2.27 nM
B9: H48/L34 (antibody, human IgG1, kappa)
heavy: not shown
light: B2 light with Q17R, Q24R, Q27R, E50K

Kd [1]: 3.81 nM
B10: H32/L21 (antibody, human IgG1, kappa, V domains shown)
VH: B1 VH with S61E, K64Q, S65D, Q111E
VL: B1 VL with R24Q, L109V, K112E

Kd [2]: 2.38 nM
B11: H47/L37 (antibody, human IgG1, kappa)
heavy: not shown
light: B2 light with Q17R, Q24R, Q27R, E50K, Q105R

Kd [2]: 1.94 nM
B12: H49/L31 (antibody, human IgG1, kappa)
heavy: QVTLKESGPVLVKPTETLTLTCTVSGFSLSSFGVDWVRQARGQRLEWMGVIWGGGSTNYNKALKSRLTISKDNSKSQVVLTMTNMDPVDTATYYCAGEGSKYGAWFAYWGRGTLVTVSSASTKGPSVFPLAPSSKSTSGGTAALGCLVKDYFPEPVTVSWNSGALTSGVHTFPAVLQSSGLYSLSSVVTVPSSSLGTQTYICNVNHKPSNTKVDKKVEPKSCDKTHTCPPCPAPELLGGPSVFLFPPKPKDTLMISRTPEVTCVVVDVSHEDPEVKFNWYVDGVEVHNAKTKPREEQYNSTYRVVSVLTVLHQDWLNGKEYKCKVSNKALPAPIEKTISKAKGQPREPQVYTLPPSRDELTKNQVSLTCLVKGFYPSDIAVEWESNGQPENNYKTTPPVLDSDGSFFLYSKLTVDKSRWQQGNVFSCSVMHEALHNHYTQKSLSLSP
light: B2 light with Q24R, Q27R, E50K

Kd [2]: 1.83 nM
B13: H47/L11 (antibody, human IgG1, kappa)
heavy: not shown
light: B2 light with L109V, K112E

Kd [2]: 2.08 nM
B14: H49/L35 (antibody, human IgG1, kappa)
heavy: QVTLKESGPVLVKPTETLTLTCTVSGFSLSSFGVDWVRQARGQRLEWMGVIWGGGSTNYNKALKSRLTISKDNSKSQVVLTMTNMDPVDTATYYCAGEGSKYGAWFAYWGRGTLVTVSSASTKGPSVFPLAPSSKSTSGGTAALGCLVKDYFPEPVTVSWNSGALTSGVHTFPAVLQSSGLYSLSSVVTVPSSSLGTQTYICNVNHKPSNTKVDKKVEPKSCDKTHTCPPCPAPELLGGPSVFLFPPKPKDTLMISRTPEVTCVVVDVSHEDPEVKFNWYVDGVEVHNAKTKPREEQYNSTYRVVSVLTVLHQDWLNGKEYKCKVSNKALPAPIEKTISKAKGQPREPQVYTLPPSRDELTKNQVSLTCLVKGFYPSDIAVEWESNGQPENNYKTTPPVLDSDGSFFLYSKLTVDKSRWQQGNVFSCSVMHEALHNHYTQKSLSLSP
light: B2 light with Q24R, Q27R, E50K, Q105R

Kd [2]: 2.04 nM
B15: H46/L35 (antibody, human IgG1, kappa)
heavy: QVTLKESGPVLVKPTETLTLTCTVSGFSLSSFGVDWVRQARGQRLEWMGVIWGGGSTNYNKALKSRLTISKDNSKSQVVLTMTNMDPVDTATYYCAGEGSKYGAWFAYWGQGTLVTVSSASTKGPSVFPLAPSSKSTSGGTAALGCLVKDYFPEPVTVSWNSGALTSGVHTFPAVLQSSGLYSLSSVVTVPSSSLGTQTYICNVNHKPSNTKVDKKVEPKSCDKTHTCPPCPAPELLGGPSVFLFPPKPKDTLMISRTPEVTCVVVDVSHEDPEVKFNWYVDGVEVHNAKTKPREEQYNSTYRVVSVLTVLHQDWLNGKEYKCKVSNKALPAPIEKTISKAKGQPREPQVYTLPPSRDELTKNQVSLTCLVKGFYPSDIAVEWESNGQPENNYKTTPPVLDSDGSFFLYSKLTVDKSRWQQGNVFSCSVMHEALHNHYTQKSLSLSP
light: B2 light with Q24R, Q27R, E50K, Q105R

Kd [2]: 1.6 nM
B16: H47/L27 (antibody, human IgG1, kappa)
heavy: not shown
light: B2 light with Q24R, Q27R

Kd [2]: 2 nM
B17: H48/L11 (antibody, human IgG1, kappa)
heavy: not shown
light: B2 light with L109V, K112E

Kd [2]: 1.52 nM
B18: H47/L28 (antibody, human IgG1, kappa)
heavy: not shown
light: B2 light with Q24R, E50K

Kd [2]: 2.72 nM
B19: H50/L37 (antibody, human IgG1, kappa)
heavy: not shown
light: B2 light with Q17R, Q24R, Q27R, E50K, Q105R

Kd [2]: 2.09 nM
B20: H48/L0 (antibody, human IgG1, kappa)
heavy: not shown
light: B2 light with Q24R

Kd [2]: 1.98 nM
B21: H48/L31 (antibody, human IgG1, kappa)
heavy: not shown
light: B2 light with Q24R, Q27R, E50K

Kd [2]: 2.2 nM
B22: H47/L34 (antibody, human IgG1, kappa)
heavy: not shown
light: B2 light with Q17R, Q24R, Q27R, E50K

Kd [2]: 2.43 nM
B23: H49/L37 (antibody, human IgG1, kappa)
heavy: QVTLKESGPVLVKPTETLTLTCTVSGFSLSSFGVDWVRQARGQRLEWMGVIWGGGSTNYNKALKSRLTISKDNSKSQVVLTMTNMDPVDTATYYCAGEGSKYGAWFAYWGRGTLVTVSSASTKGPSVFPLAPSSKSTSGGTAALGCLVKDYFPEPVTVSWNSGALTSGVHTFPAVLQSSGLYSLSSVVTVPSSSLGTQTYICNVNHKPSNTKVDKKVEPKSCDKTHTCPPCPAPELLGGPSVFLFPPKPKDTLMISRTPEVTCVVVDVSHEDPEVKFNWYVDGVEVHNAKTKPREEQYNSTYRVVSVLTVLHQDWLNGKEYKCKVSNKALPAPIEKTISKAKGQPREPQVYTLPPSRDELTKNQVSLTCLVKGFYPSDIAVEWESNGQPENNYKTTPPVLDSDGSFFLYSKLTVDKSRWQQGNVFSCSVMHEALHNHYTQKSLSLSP
light: B2 light with Q17R, Q24R, Q27R, E50K, Q105R

Kd [2]: 1.9 nM
B24: H50/L10 (antibody, human IgG1, kappa)
heavy: not shown
light: B2 light with Q24R, L109V, K112E

Kd [2]: 2.36 nM
B25: H50/L34 (antibody, human IgG1, kappa)
heavy: not shown
light: B2 light with Q17R, Q24R, Q27R, E50K

Kd [2]: 2.22 nM
B26: H46/L34 (antibody, human IgG1, kappa)
heavy: not shown
light: B2 light with Q17R, Q24R, Q27R, E50K

Kd [2]: 2.3 nM
B27: H46/L37 (antibody, human IgG1, kappa)
heavy: not shown
light: B2 light with Q17R, Q24R, Q27R, E50K, Q105R

Kd [2]: 1.97 nM
B28: H50/L28 (antibody, human IgG1, kappa)
heavy: not shown
light: B2 light with Q24R, E50K

Kd [2]: 1.95 nM
B29: H50/L27 (antibody, human IgG1, kappa)
heavy: not shown
light: B2 light with Q24R, Q27R

Kd [2]: 1.99 nM
B30: H48/L27 (antibody, human IgG1, kappa)
heavy: not shown
light: B2 light with Q24R, Q27R

Kd [2]: 2.05 nM
B31: H49/L10 (antibody, human IgG1, kappa)
heavy: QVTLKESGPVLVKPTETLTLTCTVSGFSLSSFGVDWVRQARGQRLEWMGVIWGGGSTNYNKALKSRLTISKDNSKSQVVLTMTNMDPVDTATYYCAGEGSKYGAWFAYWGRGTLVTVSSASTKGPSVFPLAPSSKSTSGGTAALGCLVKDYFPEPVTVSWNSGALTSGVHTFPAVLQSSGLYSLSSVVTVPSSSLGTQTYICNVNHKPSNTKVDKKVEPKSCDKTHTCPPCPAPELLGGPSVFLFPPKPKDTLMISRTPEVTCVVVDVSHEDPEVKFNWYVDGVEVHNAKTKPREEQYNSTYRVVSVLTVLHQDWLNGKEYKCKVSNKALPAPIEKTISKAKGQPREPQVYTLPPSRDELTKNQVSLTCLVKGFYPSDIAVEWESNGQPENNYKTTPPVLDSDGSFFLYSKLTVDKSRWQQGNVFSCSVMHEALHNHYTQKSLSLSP
light: B2 light with Q24R, L109V, K112E

Kd [2]: 1.93 nM
B32: H50/L31 (antibody, human IgG1, kappa)
heavy: not shown
light: B2 light with Q24R, Q27R, E50K

Kd [2]: 2.24 nM
B33: H50/L35 (antibody, human IgG1, kappa)
heavy: not shown
light: B2 light with Q24R, Q27R, E50K, Q105R

Kd [2]: 2.09 nM
B34: H48/L1 (antibody, human IgG1, kappa)
heavy: not shown
light: B2 light

Kd [2]: 2.07 nM
B35: H48/L35 (antibody, human IgG1, kappa)
heavy: not shown
light: B2 light with Q24R, Q27R, E50K, Q105R

Kd [2]: 2.19 nM
B36: H48/L37 (antibody, human IgG1, kappa)
heavy: not shown
light: B2 light with Q17R, Q24R, Q27R, E50K, Q105R

Kd [2]: 1.92 nM
B37: H49/L11 (antibody, human IgG1, kappa)
heavy: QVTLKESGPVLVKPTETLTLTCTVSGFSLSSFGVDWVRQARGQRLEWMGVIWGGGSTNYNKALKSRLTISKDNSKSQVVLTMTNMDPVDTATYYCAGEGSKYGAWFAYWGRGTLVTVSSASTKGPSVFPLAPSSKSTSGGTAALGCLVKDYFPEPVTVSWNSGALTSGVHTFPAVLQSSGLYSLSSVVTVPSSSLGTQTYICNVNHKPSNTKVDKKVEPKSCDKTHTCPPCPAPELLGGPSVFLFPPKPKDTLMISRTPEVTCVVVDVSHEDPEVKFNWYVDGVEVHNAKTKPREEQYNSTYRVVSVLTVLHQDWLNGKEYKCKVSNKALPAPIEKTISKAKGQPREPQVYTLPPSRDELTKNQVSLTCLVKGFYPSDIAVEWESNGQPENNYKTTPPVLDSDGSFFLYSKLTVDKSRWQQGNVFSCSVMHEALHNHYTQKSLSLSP
light: B2 light with L109V, K112E

Kd [1]: 2.59 nM
B38: H36/L36 (antibody, human IgG1, kappa, V domains shown)
VH: B1 VH with P41R, K43Q, G44R
VL: B1 VL

Kd [2]: 1.86 nM
B39: H50/L1 (antibody, human IgG1, kappa)
heavy: not shown
light: B2 light

Kd [2]: 1.91 nM
B40: H49/L1 (antibody, human IgG1, kappa)
heavy: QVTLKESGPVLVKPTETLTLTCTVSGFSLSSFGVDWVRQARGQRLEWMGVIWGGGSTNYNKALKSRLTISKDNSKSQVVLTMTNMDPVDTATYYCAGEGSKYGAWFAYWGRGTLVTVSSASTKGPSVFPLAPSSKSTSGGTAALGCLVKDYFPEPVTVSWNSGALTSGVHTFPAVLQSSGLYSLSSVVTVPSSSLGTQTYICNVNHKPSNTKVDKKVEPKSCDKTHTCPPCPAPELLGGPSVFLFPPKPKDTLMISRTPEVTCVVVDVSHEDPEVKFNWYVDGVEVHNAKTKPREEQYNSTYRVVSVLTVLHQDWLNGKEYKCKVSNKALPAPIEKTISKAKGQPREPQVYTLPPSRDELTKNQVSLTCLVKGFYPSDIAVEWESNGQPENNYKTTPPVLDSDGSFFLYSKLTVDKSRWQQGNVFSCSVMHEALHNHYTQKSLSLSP
light: B2 light

Kd [2]: 1.82 nM
B41: H50/L11 (antibody, human IgG1, kappa)
heavy: not shown
light: B2 light with L109V, K112E

Kd [2]: 2.21 nM
B42: H49/L34 (antibody, human IgG1, kappa)
heavy: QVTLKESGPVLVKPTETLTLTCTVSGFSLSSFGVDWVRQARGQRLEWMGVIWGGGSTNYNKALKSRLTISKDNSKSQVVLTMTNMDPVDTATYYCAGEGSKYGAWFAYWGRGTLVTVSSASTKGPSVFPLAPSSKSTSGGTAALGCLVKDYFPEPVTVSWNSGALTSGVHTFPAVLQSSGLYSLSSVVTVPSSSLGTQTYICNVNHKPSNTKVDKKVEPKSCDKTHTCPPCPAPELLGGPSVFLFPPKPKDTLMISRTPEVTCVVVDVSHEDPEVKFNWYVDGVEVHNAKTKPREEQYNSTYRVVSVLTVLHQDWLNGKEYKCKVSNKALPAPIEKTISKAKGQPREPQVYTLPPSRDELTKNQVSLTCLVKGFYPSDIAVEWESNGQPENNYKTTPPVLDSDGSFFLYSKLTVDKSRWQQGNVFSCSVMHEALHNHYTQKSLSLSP
light: B2 light with Q17R, Q24R, Q27R, E50K

Kd [2]: 2.06 nM
B43: H48/L10 (antibody, human IgG1, kappa)
heavy: not shown
light: B2 light with Q24R, L109V, K112E

Kd [2]: 1.89 nM
B44: H47/L10 (antibody, human IgG1, kappa)
heavy: not shown
light: B2 light with Q24R, L109V, K112E

Kd [2]: 2.11 nM
B45: H49/L28 (antibody, human IgG1, kappa)
heavy: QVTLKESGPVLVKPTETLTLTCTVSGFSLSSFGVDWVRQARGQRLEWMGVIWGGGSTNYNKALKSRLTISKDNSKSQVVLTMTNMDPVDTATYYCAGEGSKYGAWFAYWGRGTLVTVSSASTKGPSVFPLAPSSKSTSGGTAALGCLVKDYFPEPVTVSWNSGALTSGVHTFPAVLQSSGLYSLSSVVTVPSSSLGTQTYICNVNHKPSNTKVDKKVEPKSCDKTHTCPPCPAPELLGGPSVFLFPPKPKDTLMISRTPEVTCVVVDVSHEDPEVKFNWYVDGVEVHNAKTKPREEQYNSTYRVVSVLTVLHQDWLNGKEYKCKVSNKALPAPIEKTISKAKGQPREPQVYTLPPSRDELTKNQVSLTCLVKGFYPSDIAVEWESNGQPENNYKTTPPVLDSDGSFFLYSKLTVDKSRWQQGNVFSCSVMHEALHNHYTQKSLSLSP
light: B2 light with Q24R, E50K

Kd [2]: 1.68 nM
B46: H47/L35 (antibody, human IgG1, kappa)
heavy: not shown
light: B2 light with Q24R, Q27R, E50K, Q105R
